For one substance, neutralisation of SHIV-BG505 infection of TZM-bl cells by soluble rhCD4; sensitivity against WT SHIV (fold more sensitive than WT SHIV) results are on record in publication PMC8749432.

Experiment [1] addresses HIV-1 BG505.W6M.B1 envelope glycoprotein A204E on SHIV-BG505 virions (HIV-1).
The target in experiment [2] is HIV-1 BG505.W6M.B1 envelope glycoprotein I423A on SHIV-BG505 virions (HIV-1).
Experiment [3] addresses HIV-1 BG505.W6M.B1 envelope glycoprotein L193A on SHIV-BG505 virions (HIV-1).

On to “Soluble rhesus CD4 (Met1-Trp390) with C-terminal 6×His tag (from UniProt P16003 26-390) (domain or fragment)”, for which the neutralisation of SHIV-BG505 infection of TZM-bl cells by soluble rhCD4; sensitivity against WT SHIV (fold more sensitive than WT SHIV) in experiment [1] turned out to be 1500; in experiment [2], 30; in experiment [3], 3.
